Measured values as given in article PMC8452682, “Unwinding of a DNA replication fork by a hexameric viral helicase” (Nature Communications, 2021).

Target: the molecule itself
Assay: cryo-EM structure; E1RF complex: 60 uM E1 assembled with 10 uM fork DNA, no nucleotide, purified by gel filtration (10 mM Tris-Cl pH 8.0, 225 mM NaCl, 2 mM DTT, 0.1 mM PMSF, 1 mM EDTA); hexamer on DNA; Titan Krios 300 kV, K3

B1: Bovine papillomavirus (BPV) E1 helicase, full-length, wild type (enzyme)
chain: MANDKGSNWDSGLGCSYLLTEAECESDKENEEPGAGVELSVESDRYDSQDEDFVDNASVFQGNHLEVFQALEKKAGEEQILNLKRKVLGSSQNSSGSEASETPVKRRKSGAKRRLFAENEANRVLTPLQVQGEGEGRQELNEEQAISHLHLQLVKSKNATVFKLGLFKSLFLCSFHDITRLFKNDKTTNQQWVLAVFGLAEVFFEASFELLKKQCSFLQMQKRSHEGGTCAVYLICFNTAKSRETVRNLMANTLNVREECLMLQPAKIRGLSAALFWFKSSLSPATLKHGALPEWIRAQTTLNESLQTEKFDFGTMVQWAYDHKYAEESKIAYEYALAAGSDSNARAFLATNSQAKHVKDCATMVRHYLRAETQALSMPAYIKARCKLATGEGSWKSILTFFNYQNIELITFINALKLWLKGIPKKNCLAFIGPPNTGKSMLCNSLIHFLGGSVLSFANHKSHFWLASLADTRAALVDDATHACWRYFDTYLRNALDGYPVSIDRKHKAAVQIKAPPLLVTSNIDVQAEDRYLYLHSRVQTFRFEQPCTDESGEQPFNITDADWKSFFVRLWGRLDLIDEEEDSEEDGDSMRTFTCSARNTNAVD
notes: Replication protein E1 of bovine papillomavirus (BPV), full length; C-terminal acidic tail is residues 579-605; Hexamer assembled on a synthetic DNA replication fork (30 bp dsDNA, 3' T20, 13-base 5' tail) without nucleotide; also called E1 protein; subunits A-F of the E1RF complex; source: expressed as a GST fusion protein, purified (glutathione sepharose, thrombin cleavage, cation and anion …)
How did the “stoichiometry N” value turn out when B1 was run?
The value was 6.
